Patent US20210388087A1 (Chugai, published 2021)

biological target: T1, Human CD137 ECD (human); experiment: single mutant vs template dBBDu183H
T1 construct: also called 4-1BB
T1 sequence (chain, as listed by the source limits assumed): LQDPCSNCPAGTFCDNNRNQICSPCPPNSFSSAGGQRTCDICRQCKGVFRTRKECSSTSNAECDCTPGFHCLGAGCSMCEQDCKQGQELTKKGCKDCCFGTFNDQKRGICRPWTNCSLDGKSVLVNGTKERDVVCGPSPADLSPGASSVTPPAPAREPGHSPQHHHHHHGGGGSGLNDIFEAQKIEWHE

Binder	fold change of affinity
H183/L072 VH P61M (antibody, name in Kabat numbering, V domains shown) VH: QVQLVESGGGLVQPGRSLRLSCAASGFTFSNAWMHWVRQAPGKGLEWVAQIKDKGNAYAAYYAMSVKGRFTISRDDSKNSIYLQMNSLKTEDTAVYYCHYVHYASASTVLPAFGVDAWGQGTTVTVSS VL: DIVMTQSPLSLPVTPGEPASISCQASQELVHMNRNTYLHWYQQKPGQAPRLLIYKVSNRFPGVPDRFSGSGSGTDFTLKISRVEAEDVGVYYCAQGTSVPFTFGQGTKLEIK	0.6 fold
H183/L072 VH Q50S (antibody, name in Kabat numbering, V domains shown) VH: QVQLVESGGGLVQPGRSLRLSCAASGFTFSNAWMHWVRQAPGKGLEWVASIKDKGNAYAAYYAPSVKGRFTISRDDSKNSIYLQMNSLKTEDTAVYYCHYVHYASASTVLPAFGVDAWGQGTTVTVSS VL: DIVMTQSPLSLPVTPGEPASISCQASQELVHMNRNTYLHWYQQKPGQAPRLLIYKVSNRFPGVPDRFSGSGSGTDFTLKISRVEAEDVGVYYCAQGTSVPFTFGQGTKLEIK	0.8 fold
H183/L072 VH Q50L (antibody, name in Kabat numbering, V domains shown) VH: QVQLVESGGGLVQPGRSLRLSCAASGFTFSNAWMHWVRQAPGKGLEWVALIKDKGNAYAAYYAPSVKGRFTISRDDSKNSIYLQMNSLKTEDTAVYYCHYVHYASASTVLPAFGVDAWGQGTTVTVSS VL: DIVMTQSPLSLPVTPGEPASISCQASQELVHMNRNTYLHWYQQKPGQAPRLLIYKVSNRFPGVPDRFSGSGSGTDFTLKISRVEAEDVGVYYCAQGTSVPFTFGQGTKLEIK	0.8 fold
H183/L072 VH P100eL (antibody, name in Kabat numbering, V domains shown) VH: QVQLVESGGGLVQPGRSLRLSCAASGFTFSNAWMHWVRQAPGKGLEWVAQIKDKGNAYAAYYAPSVKGRFTISRDDSKNSIYLQMNSLKTEDTAVYYCHYVHYASASTVLLAFGVDAWGQGTTVTVSS VL: DIVMTQSPLSLPVTPGEPASISCQASQELVHMNRNTYLHWYQQKPGQAPRLLIYKVSNRFPGVPDRFSGSGSGTDFTLKISRVEAEDVGVYYCAQGTSVPFTFGQGTKLEIK	0 fold
H183/L072 VH Q50V (antibody, name in Kabat numbering, V domains shown) VH: QVQLVESGGGLVQPGRSLRLSCAASGFTFSNAWMHWVRQAPGKGLEWVAVIKDKGNAYAAYYAPSVKGRFTISRDDSKNSIYLQMNSLKTEDTAVYYCHYVHYASASTVLPAFGVDAWGQGTTVTVSS VL: DIVMTQSPLSLPVTPGEPASISCQASQELVHMNRNTYLHWYQQKPGQAPRLLIYKVSNRFPGVPDRFSGSGSGTDFTLKISRVEAEDVGVYYCAQGTSVPFTFGQGTKLEIK	0.3 fold
H183/L072 VH Q50D (antibody, name in Kabat numbering, V domains shown) VH: QVQLVESGGGLVQPGRSLRLSCAASGFTFSNAWMHWVRQAPGKGLEWVADIKDKGNAYAAYYAPSVKGRFTISRDDSKNSIYLQMNSLKTEDTAVYYCHYVHYASASTVLPAFGVDAWGQGTTVTVSS VL: DIVMTQSPLSLPVTPGEPASISCQASQELVHMNRNTYLHWYQQKPGQAPRLLIYKVSNRFPGVPDRFSGSGSGTDFTLKISRVEAEDVGVYYCAQGTSVPFTFGQGTKLEIK	0.3 fold
H183/L072 VH Q50Y (antibody, name in Kabat numbering, V domains shown) VH: QVQLVESGGGLVQPGRSLRLSCAASGFTFSNAWMHWVRQAPGKGLEWVAYIKDKGNAYAAYYAPSVKGRFTISRDDSKNSIYLQMNSLKTEDTAVYYCHYVHYASASTVLPAFGVDAWGQGTTVTVSS VL: DIVMTQSPLSLPVTPGEPASISCQASQELVHMNRNTYLHWYQQKPGQAPRLLIYKVSNRFPGVPDRFSGSGSGTDFTLKISRVEAEDVGVYYCAQGTSVPFTFGQGTKLEIK	3.1 fold
H183/L072 VH P100eI (antibody, name in Kabat numbering, V domains shown) VH: QVQLVESGGGLVQPGRSLRLSCAASGFTFSNAWMHWVRQAPGKGLEWVAQIKDKGNAYAAYYAPSVKGRFTISRDDSKNSIYLQMNSLKTEDTAVYYCHYVHYASASTVLIAFGVDAWGQGTTVTVSS VL: DIVMTQSPLSLPVTPGEPASISCQASQELVHMNRNTYLHWYQQKPGQAPRLLIYKVSNRFPGVPDRFSGSGSGTDFTLKISRVEAEDVGVYYCAQGTSVPFTFGQGTKLEIK	0 fold
H183/L072 VH P100eM (antibody, name in Kabat numbering, V domains shown) VH: QVQLVESGGGLVQPGRSLRLSCAASGFTFSNAWMHWVRQAPGKGLEWVAQIKDKGNAYAAYYAPSVKGRFTISRDDSKNSIYLQMNSLKTEDTAVYYCHYVHYASASTVLMAFGVDAWGQGTTVTVSS VL: DIVMTQSPLSLPVTPGEPASISCQASQELVHMNRNTYLHWYQQKPGQAPRLLIYKVSNRFPGVPDRFSGSGSGTDFTLKISRVEAEDVGVYYCAQGTSVPFTFGQGTKLEIK	0 fold
H183/L072 VH Q50N (antibody, name in Kabat numbering, V domains shown) VH: QVQLVESGGGLVQPGRSLRLSCAASGFTFSNAWMHWVRQAPGKGLEWVANIKDKGNAYAAYYAPSVKGRFTISRDDSKNSIYLQMNSLKTEDTAVYYCHYVHYASASTVLPAFGVDAWGQGTTVTVSS VL: DIVMTQSPLSLPVTPGEPASISCQASQELVHMNRNTYLHWYQQKPGQAPRLLIYKVSNRFPGVPDRFSGSGSGTDFTLKISRVEAEDVGVYYCAQGTSVPFTFGQGTKLEIK	0.5 fold
H183/L072 VH Q50H (antibody, name in Kabat numbering, V domains shown) VH: QVQLVESGGGLVQPGRSLRLSCAASGFTFSNAWMHWVRQAPGKGLEWVAHIKDKGNAYAAYYAPSVKGRFTISRDDSKNSIYLQMNSLKTEDTAVYYCHYVHYASASTVLPAFGVDAWGQGTTVTVSS VL: DIVMTQSPLSLPVTPGEPASISCQASQELVHMNRNTYLHWYQQKPGQAPRLLIYKVSNRFPGVPDRFSGSGSGTDFTLKISRVEAEDVGVYYCAQGTSVPFTFGQGTKLEIK	0.6 fold
H183/L072 VH Q50K (antibody, name in Kabat numbering, V domains shown) VH: QVQLVESGGGLVQPGRSLRLSCAASGFTFSNAWMHWVRQAPGKGLEWVAKIKDKGNAYAAYYAPSVKGRFTISRDDSKNSIYLQMNSLKTEDTAVYYCHYVHYASASTVLPAFGVDAWGQGTTVTVSS VL: DIVMTQSPLSLPVTPGEPASISCQASQELVHMNRNTYLHWYQQKPGQAPRLLIYKVSNRFPGVPDRFSGSGSGTDFTLKISRVEAEDVGVYYCAQGTSVPFTFGQGTKLEIK	0.8 fold
H183/L072 VH S30A (antibody, name in Kabat numbering, V domains shown) VH: QVQLVESGGGLVQPGRSLRLSCAASGFTFANAWMHWVRQAPGKGLEWVAQIKDKGNAYAAYYAPSVKGRFTISRDDSKNSIYLQMNSLKTEDTAVYYCHYVHYASASTVLPAFGVDAWGQGTTVTVSS VL: DIVMTQSPLSLPVTPGEPASISCQASQELVHMNRNTYLHWYQQKPGQAPRLLIYKVSNRFPGVPDRFSGSGSGTDFTLKISRVEAEDVGVYYCAQGTSVPFTFGQGTKLEIK	1.2 fold
H183/L072 VH Q50F (antibody, name in Kabat numbering, V domains shown) VH: QVQLVESGGGLVQPGRSLRLSCAASGFTFSNAWMHWVRQAPGKGLEWVAFIKDKGNAYAAYYAPSVKGRFTISRDDSKNSIYLQMNSLKTEDTAVYYCHYVHYASASTVLPAFGVDAWGQGTTVTVSS VL: DIVMTQSPLSLPVTPGEPASISCQASQELVHMNRNTYLHWYQQKPGQAPRLLIYKVSNRFPGVPDRFSGSGSGTDFTLKISRVEAEDVGVYYCAQGTSVPFTFGQGTKLEIK	2.6 fold
H183/L072 VH Q50T (antibody, name in Kabat numbering, V domains shown) VH: QVQLVESGGGLVQPGRSLRLSCAASGFTFSNAWMHWVRQAPGKGLEWVATIKDKGNAYAAYYAPSVKGRFTISRDDSKNSIYLQMNSLKTEDTAVYYCHYVHYASASTVLPAFGVDAWGQGTTVTVSS VL: DIVMTQSPLSLPVTPGEPASISCQASQELVHMNRNTYLHWYQQKPGQAPRLLIYKVSNRFPGVPDRFSGSGSGTDFTLKISRVEAEDVGVYYCAQGTSVPFTFGQGTKLEIK	2 fold
H183/L072 VH P100eA (antibody, name in Kabat numbering, V domains shown) VH: QVQLVESGGGLVQPGRSLRLSCAASGFTFSNAWMHWVRQAPGKGLEWVAQIKDKGNAYAAYYAPSVKGRFTISRDDSKNSIYLQMNSLKTEDTAVYYCHYVHYASASTVLAAFGVDAWGQGTTVTVSS VL: DIVMTQSPLSLPVTPGEPASISCQASQELVHMNRNTYLHWYQQKPGQAPRLLIYKVSNRFPGVPDRFSGSGSGTDFTLKISRVEAEDVGVYYCAQGTSVPFTFGQGTKLEIK	0.5 fold
H183/L072 VH Q50M (antibody, name in Kabat numbering, V domains shown) VH: QVQLVESGGGLVQPGRSLRLSCAASGFTFSNAWMHWVRQAPGKGLEWVAMIKDKGNAYAAYYAPSVKGRFTISRDDSKNSIYLQMNSLKTEDTAVYYCHYVHYASASTVLPAFGVDAWGQGTTVTVSS VL: DIVMTQSPLSLPVTPGEPASISCQASQELVHMNRNTYLHWYQQKPGQAPRLLIYKVSNRFPGVPDRFSGSGSGTDFTLKISRVEAEDVGVYYCAQGTSVPFTFGQGTKLEIK	1.5 fold
H183/L072 VH S30D (antibody, name in Kabat numbering, V domains shown) VH: QVQLVESGGGLVQPGRSLRLSCAASGFTFDNAWMHWVRQAPGKGLEWVAQIKDKGNAYAAYYAPSVKGRFTISRDDSKNSIYLQMNSLKTEDTAVYYCHYVHYASASTVLPAFGVDAWGQGTTVTVSS VL: DIVMTQSPLSLPVTPGEPASISCQASQELVHMNRNTYLHWYQQKPGQAPRLLIYKVSNRFPGVPDRFSGSGSGTDFTLKISRVEAEDVGVYYCAQGTSVPFTFGQGTKLEIK	0.4 fold
H183/L072 VH Q50E (antibody, name in Kabat numbering, V domains shown) VH: QVQLVESGGGLVQPGRSLRLSCAASGFTFSNAWMHWVRQAPGKGLEWVAEIKDKGNAYAAYYAPSVKGRFTISRDDSKNSIYLQMNSLKTEDTAVYYCHYVHYASASTVLPAFGVDAWGQGTTVTVSS VL: DIVMTQSPLSLPVTPGEPASISCQASQELVHMNRNTYLHWYQQKPGQAPRLLIYKVSNRFPGVPDRFSGSGSGTDFTLKISRVEAEDVGVYYCAQGTSVPFTFGQGTKLEIK	0.5 fold
H183/L072 VH Q50W (antibody, name in Kabat numbering, V domains shown) VH: QVQLVESGGGLVQPGRSLRLSCAASGFTFSNAWMHWVRQAPGKGLEWVAWIKDKGNAYAAYYAPSVKGRFTISRDDSKNSIYLQMNSLKTEDTAVYYCHYVHYASASTVLPAFGVDAWGQGTTVTVSS VL: DIVMTQSPLSLPVTPGEPASISCQASQELVHMNRNTYLHWYQQKPGQAPRLLIYKVSNRFPGVPDRFSGSGSGTDFTLKISRVEAEDVGVYYCAQGTSVPFTFGQGTKLEIK	1.7 fold
